{"source": "patent US20240299576A1", "about": "“TARGETING […] MOLECULES AND USES THEREOF” (priority 2021, published 2024)", "key": {"[1]": {"test": "Stability of SN-38 (lactone / lactone ring opening vs pH)", "assay_type": "physicochemical", "procedure": "A hydrochloric acid solution with a pH of 4 and a sodium hydroxide solution with a pH of 10 were prepared respectively. 5 mg of SN-38 was dissolved in 5 mL of acetonitrile. The stability of SN-38 in a solution of changing pH (pH=10 to pH=4) was measured by shaking SN-38 at room temperature under pH=10 for 10 min, then adjusting the pH back to 4 and shake at room temperature for 10 min before sampling. SN-38 was then incubated at room temperature overnight (16 h) on a shaker and assayed afterwards."}, "PC3-hPDL1-hTROP2 cells": {"test_system": "PC3-hPDL1-hTROP2 cells", "test": "cells", "assay_type": "cell-based, human", "details": "5 days exposure, read-out: PC3-hPDL1-hTROP2 cell IC50", "procedure": "(§1) The in vitro anti-tumor activity was determined by CellTiter-Glo® Luminescent Cell Viability Assay (Promega) according to the manufacturer's instructions. […] Untreated cells served as control. ADCs, antibodies, or payloads in 100 μL medium were added in duplicate at various concentrations with a 2-fold dilution series starting with concentrations of 1 uM, respectively. Cells were exposed to test articles for 5 days. Absorbance was measured at 450 nm by a microplate reader. The cell survival rate (%) was calculated using the following formula: sample/control×100%."}, "HCT15-hPDL1-hTROP2 cells": {"test_system": "HCT15-hPDL1-hTROP2 cells", "test": "In vitro cytotoxicity, HCT15-hPDL1-hTROP2 cells", "assay_type": "cell-based, human", "procedure": "The cell line was named as HCT15-hPDL1-hTROP2.\nas §1"}, "HCT15-hPDL1 cells": {"test_system": "HCT15-hPDL1 cells", "test": "cells", "assay_type": "cell-based, human", "details": "5 days exposure, read-out: HCT15-hPDL1 cell IC50", "procedure": "The cell line was named as HCT15-hPDL1.\nas §1"}, "CathepsinB": {"target": "CathepsinB (Homo sapiens, UniProt P07858)", "test": "Digestion of the drug-linkers by CathepsinB", "details": "125 nM enzyme, 62.5 μM drug-linker, pH 5.5, 37° C., 3 hours", "method": "To simulate the release of drug under physiological conditions, the drug-linkers were subjected to cleavage by CathepsinB, after which an elimination reaction occurred and unmodified drug was released.\nLyophilized CathepsinB enzyme powder was dissolved in 130 μL of pure water, and divided into 13 tubes of 10 μL each. […] Activation buffer (20 mM sodium acetate, 30 mM DTT, 15 mM EDTA, pH 5.5) was then added to a tube of enzyme to activate the enzyme for 1 hour at room temperature."}, "[2]": {"test_system": "T1, uPA substrate peptide SEQ ID NO: 50", "T1 sequence": "LSGRSDNH"}, "[3]": {"test_system": "T2, uPA substrate peptide SEQ ID NO: 52", "T2 sequence": "LGGSGRSANAILE"}, "[4]": {"test_system": "T3, uPA substrate peptide SEQ ID NO: 51", "T3 sequence": "SGRSA"}, "[5]": {"test_system": "T4, uPA substrate peptide SEQ ID NO: 53", "T4 sequence": "LGGSGRNAQVRLE"}, "[6]": {"test_system": "T5, uPA substrate peptide SEQ ID NO: 54", "T5 sequence": "GSGRNAQV"}, "[7]": {"details": "alkaline conditions 10 minutes, then acidic conditions (pH 10→4) before testing"}, "[8]": {"details": "pH 10→4, after incubation overnight (16 h)"}}, "note": "Like-named read-outs stand apart in the source and are kept apart here.", "data": [{"compound": "CCc1c2c(nc3ccc(O)cc13)-c1cc3c(c(=O)n1C2)COC(=O)[C@]3(O)CC", "note": "[SN38, 7-ethyl-10-hydroxy-20(S)-camptothecin]", "values": [{"measurement": "existing as lactone", "setting": "[1]; acidic conditions (pH 4)", "value": 94, "unit": "%"}, {"measurement": "lactone ring-opening products", "setting": "[1]; [7]", "value": 42, "unit": "%"}, {"measurement": "present in the form of lactone", "setting": "[1]; [7]", "value": 56, "unit": "%"}, {"measurement": "lactone ring-opened form", "setting": "[1]; alkaline conditions (pH 10)", "value": 92, "unit": "%"}, {"measurement": "in the form of lactone", "setting": "[1]; [8]", "value": 86, "unit": "%"}, {"measurement": "lactone ring-opening products", "setting": "[1]; [8]", "value": 13, "unit": "%"}, {"measurement": "IC50", "setting": "PC3-hPDL1-hTROP2 cells; Homo sapiens, 120 h", "value": 8.69, "unit": "nM"}, {"measurement": "Maximum Inhibitory Rate", "setting": "HCT15-hPDL1-hTROP2 cells; HCT15-hPDL1-hTROP2 cells", "value": ">99.9", "unit": "%"}, {"measurement": "IC50", "setting": "HCT15-hPDL1-hTROP2 cells; Homo sapiens, 120 h, 5 days exposure, read-out: HCT15-hPDL1-hTROP2 cell IC50", "value": 9.57, "unit": "nM"}, {"measurement": "IC50", "setting": "HCT15-hPDL1 cells; Homo sapiens, 120 h", "value": 11.2, "unit": "nM"}]}, {"compound": "Glycine3-amido-PEG8-VC-PAB-DMAE-phenol linked SN38 [Compound of Formula (1)]", "values": [{"measurement": "Product released on CathepsinB digestion", "setting": "CathepsinB", "value": "SN38"}, {"measurement": "IC50", "setting": "PC3-hPDL1-hTROP2 cells", "value": "> 250", "unit": "nM"}]}, {"compound": "Glycine3-amido-PEG8-VC-PAB-DMAE-α-hydroxy lactone linked SN38 [Compound of Formula (2)]", "values": [{"measurement": "CathepsinB digestion", "setting": "CathepsinB", "value": "effectively digested"}, {"measurement": "Product released on CathepsinB digestion", "setting": "CathepsinB", "value": "SN38 derivatives"}, {"measurement": "IC50", "setting": "PC3-hPDL1-hTROP2 cells", "value": 53.1, "unit": "nM"}, {"measurement": "IC50", "setting": "HCT15-hPDL1 cells", "value": 38.1, "unit": "nM"}]}, {"compound": "Tissue-type Plasminogen Activator (tPA)", "values": [{"measurement": "Fluorescence Intensity, Fold of Increase, tPA digestion at 2.25 × 10^-2 mg/mL (FRET)", "setting": "[2]", "value": 1.1, "unit": "fold"}, {"measurement": "Fluorescence Intensity, Fold of Increase, tPA digestion at 7.5 × 10^-3 mg/mL (FRET)", "setting": "[2]", "value": 0.63, "unit": "fold"}, {"measurement": "Fluorescence Intensity, Fold of Increase, tPA digestion at 2.25 × 10^-2 mg/mL (FRET)", "setting": "[3]", "value": 2.1, "unit": "fold"}, {"measurement": "Fluorescence Intensity, Fold of Increase, tPA digestion at 7.5 × 10^-3 mg/mL (FRET)", "setting": "[3]", "value": 1.2, "unit": "fold"}, {"measurement": "Fluorescence Intensity, Fold of Increase, tPA digestion at 2.25 × 10^-2 mg/mL (FRET)", "setting": "[4]", "value": 5.4, "unit": "fold"}, {"measurement": "Fluorescence Intensity, Fold of Increase, tPA digestion at 7.5 × 10^-3 mg/mL (FRET)", "setting": "[4]", "value": 2.1, "unit": "fold"}, {"measurement": "Fluorescence Intensity, Fold of Increase, tPA digestion at 2.25 × 10^-2 mg/mL (FRET)", "setting": "[5]", "value": 1.3, "unit": "fold"}, {"measurement": "Fluorescence Intensity, Fold of Increase, tPA digestion at 7.5 × 10^-3 mg/mL (FRET)", "setting": "[5]", "value": 0.73, "unit": "fold"}, {"measurement": "Fluorescence Intensity, Fold of Increase, tPA digestion at 2.25 × 10^-2 mg/mL (FRET)", "setting": "[6]", "value": 2.6, "unit": "fold"}, {"measurement": "Fluorescence Intensity, Fold of Increase, tPA digestion at 7.5 × 10^-3 mg/mL (FRET)", "setting": "[6]", "value": 0.91, "unit": "fold"}]}, {"compound": "Urokinase-type Plasminogen Activator (uPA)", "values": [{"measurement": "Fluorescence Intensity, Fold of Increase, uPA cleavage (FRET)", "setting": "[2]", "value": 4.9, "unit": "fold"}, {"measurement": "Fluorescence Intensity, Time to Reach Plateau (h), uPA cleavage (FRET)", "setting": "[2]", "value": 1.7, "unit": "h"}, {"measurement": "Fluorescence Intensity, Fold of Increase, uPA cleavage (FRET)", "setting": "[3]", "value": 3.1, "unit": "fold"}, {"measurement": "Fluorescence Intensity, Time to Reach Plateau (h), uPA cleavage (FRET)", "setting": "[3]", "value": 1.4, "unit": "h"}, {"measurement": "Fluorescence Intensity, Fold of Increase, uPA cleavage (FRET)", "setting": "[4]", "value": 9.6, "unit": "fold"}, {"measurement": "Fluorescence Intensity, Time to Reach Plateau (h), uPA cleavage (FRET)", "setting": "[4]", "value": 1.8, "unit": "h"}, {"measurement": "Fluorescence Intensity, Fold of Increase, uPA cleavage (FRET)", "setting": "[5]", "value": 3, "unit": "fold"}, {"measurement": "Fluorescence Intensity, Time to Reach Plateau (h), uPA cleavage (FRET)", "setting": "[5]", "value": 1.6, "unit": "h"}, {"measurement": "Fluorescence Intensity, Fold of Increase, uPA cleavage (FRET)", "setting": "[6]", "value": 4.7, "unit": "fold"}, {"measurement": "Fluorescence Intensity, Time to Reach Plateau (h), uPA cleavage (FRET)", "setting": "[6]", "value": 1.4, "unit": "h"}]}]}
